Test results published in the supplement of paper PMC12636428.

Tested on: Saccharomyces cerevisiae
Test: transcriptional activation domain activity (GFP:mCherry ratio, weighted mean of sorted bins, harmonized to initial dataset scale) (arbitrary fluorescence ratio units); higher = stronger transcriptional activation
Details: beta-estradiol 1 µM; induction time 4 h
How it was run: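 Yeast diploids with a GFP reporter received barcoded protein tiles, fused to an estradiol-inducible synthetic transcription factor, at the URA3 locus. Cultures were diluted 1:5 into SC holding 1 uM beta-estradiol, incubated 4 hours at 30 °C, sorted into 8 bins on GFP:mCherry ratio, and sequenced for barcodes, with tiles under 50 reads discarded. Activation activity values come from the read-weighted mean of bin median fluorescence, averaged across barcodes and linearly placed on the initial dataset scale.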

SVYLHALKKVITTWKGEVLPIILARKIQWTEWEIKDLEYEITHFYVKTFFMTI
transcriptional activation domain activity: 47900

SFFFFFSYFYLDSLFLVLLPFTLCFYLFLVLWVCWLVGWFVGWLARFALSLSL
transcriptional activation domain activity: 55400

VTFILALLVRLRRNLPLYSWMHWLHRHIDTLSSYDGISARPAWALFFIRLVWY
transcriptional activation domain activity: 74400

MGFLTVHSCVFCFVVWVFFFPFFFLRDWFFSHSIFFLSLFFLVFFYIHLFLLG
transcriptional activation domain activity: 43700

SLLVWEFCLRHPEVRDVCDLGQMIFWNNKGAFYFTAFMFILNNTFIQGLHCLV
transcriptional activation domain activity: 72600

MKFCFIVWLSCMCIYFAKVIVVFLIALCLDNIFPFHIPNTKLLIPSTHFMITW
transcriptional activation domain activity: 57500

MASQATTLRGYNIRKRDNVFEPKSSENLNSLNQSEEEGHIGRWPPLGYEAVSA
transcriptional activation domain activity: 50300

KINQIFGYRSGLGFSIITLDWNQIAYIGSPYVAGSFRWAEANVMIGFMFFYWF
transcriptional activation domain activity: 70300

MTTDNTQKPTISLVEKVDLVFRLLAIAPLRHAIHFTRSLFIAYWRGLPLRLHI
transcriptional activation domain activity: 70300

GEKRKRGGEGKGEDDDDDDDDDRGQEGDGKRGSEDTGGGSKKGRRRRKRGKGH
transcriptional activation domain activity: 22600

LRLDGSYLYFADVREANVEQLRLNFTADDVIFKCLAWSIRHFMILRDNYFGSF
transcriptional activation domain activity: 46300

NSLKGMAVDFRWWLLAHKKRPLREVNLILQLDSLTEVIKLACVSPKLSFLCIM
transcriptional activation domain activity: 71000

GFVDVTEQVCGWPMGPWSDDEKLKELGRWNLRNWEEGMEGWILMLYTRFLGWS
transcriptional activation domain activity: 69700

ARGMYLMVDVVANQFGILCSRADGTSIDDFDFSGLWPFSSSSYFHPMCWLYWL
transcriptional activation domain activity: 64000

MSVLYIEDTFPSCFIKFKELVVCSRLCMMFPFQYQFASLLLYLILLLAYHLFL
transcriptional activation domain activity: 54300

TPIDVETDDPDIYIKPALDGSLNLLTSIVRYGQVIRGLSSCIIHLFNNVHLVR
transcriptional activation domain activity: 43000

CCQSNSLLNMENYLVPYDNFREVVDSRLQEESHSNGVDNSNSNSDNKDSIRPK
transcriptional activation domain activity: 24200

MAKSDPHQPGRIRAFKPKVSTGCKTCKIRRVKCDEAKPACKRCSSTGRKCDGY
transcriptional activation domain activity: 16300

MLLDPRVIPLIFSTLFLFLHFNFLPNFPPLPLSFHPRPTLLPPFCSLLFPLLF
transcriptional activation domain activity: 80000

MDEDEDENENENENSKPPPPLPALPPHPHPHPHPHPHPHPQPQQPQSSSTTNE
transcriptional activation domain activity: 40800

RVVYVSCNVHTQARDVGVLVRGEVEDVAANSNNTNMSTTTKNKTGGGVRYEIE
transcriptional activation domain activity: 23600

MASVVCCTELWCLFGLDVCFFPFSLFALPLVLSPSLFPLSSLSFIIFLFFPVS
transcriptional activation domain activity: 54700

CKVHAWLVGLGDVPPREMLQGLGRSLLVRSVVLSCHCLGRMSFVICIHAVHIM
transcriptional activation domain activity: 42700

ERRRKDQRKREKEEEERCHQEGREKKGEEHRREGDEERGRKEQETHASQEANG
transcriptional activation domain activity: 29600

EEGGKEKEMREVERLSADERKLWGEALRLGRTGYSESAMIWVHVLALRVFVET
transcriptional activation domain activity: 37700

MNCGIGFLNFHSQTSFKFLLFILFHFNFFAYLPLLTSCYSRLFSFSFSTIYFI
transcriptional activation domain activity: 61200

MPTDHASDTPSLGESSNQGAHKGYGRACLQCRQKKRKCRPSETKPDLCLLCEK
transcriptional activation domain activity: 40000

MWTQASVATLPTLPFTGISLSYFPCLFLLFSPDIFIFLFFLLFIYLFIFSFLL
transcriptional activation domain activity: 55900

GEEKPKPVRRQRQPKDPNAPPPQRKKRKTAAEKAAEAAAAASTPTPAPAPAPA
transcriptional activation domain activity: 13600

SSACASRSSPSSSCGSPSTSCAGAAARASPPRRCSARPCPRRRRAASPTASTS
transcriptional activation domain activity: 10100

GGLFGAKPATTGGLFGSTPAAQPAQTGGLFGGGGTTGGFGASTTGGAFGSTPA
transcriptional activation domain activity: 48500

NGIFILHHKWVIPTPFASHAFNPFDGFLQSLPYHLYVFMLPMHKWLYLGMFVF
transcriptional activation domain activity: 71400

RSMLFPKPSGFKFYRDSFRYISVMACVAMLGFIATFINFIRLGIAWHLIIVRA
transcriptional activation domain activity: 54400

FELHIPYHFVVVNTGKKLFQIWGLGKIDFARDFPFLQGARGSLTRTIIVILRN
transcriptional activation domain activity: 52300

HSLISWLLKSLENGAGAIVIRKLCSALVTHFVRFSHLWPLCVRSLLYCLHANR
transcriptional activation domain activity: 71400

SIHEPVDFLEPQPFLDFFVVFCFRLLFLWLLIFIFLFRLFIVFSLLFLFLHHI
transcriptional activation domain activity: 28600

PAVRVLPCNHGPGGDLCIICRTPLFQLTLFKYLMTKMCHVRTWLMFGILDLTF
transcriptional activation domain activity: 47700

MGLIYLYFIFFINLLIWFSVVFCELYFFFFCLCLSNCIFEIYFYVLFFNIFLY
transcriptional activation domain activity: 51000

MVQYIMSSKLLLSCINLLRSSILCTMLYLSFFGNFLLCHMIFGLWFYFMMHHE
transcriptional activation domain activity: 53300

IDDFEQFRTEYTIDLSDFQNTERLKFLEEYYWKTLNFTTPMYGADTPGSIFPE
transcriptional activation domain activity: 93300

RLGEEKRSKSTEEAPREESEEAESTKKASGKSESAGEEKTKEEGEEGEGKKEG
transcriptional activation domain activity: 30800

MPGTCTLPYYSNLPIMLVLVLIRRSNYFFFLVSLTTGSFLTTFFSLFSVRLPL
transcriptional activation domain activity: 67000

FKVGIDGCLRLRGAGSTLCFHRVVRILTATIGTMVRVLFVCKELWRVTGEETS
transcriptional activation domain activity: 51700

SFSILYSRFAGPSIYMGMRNLLILLYVSMAIWIPHLIYFWLSVLSLCIAPFLF
transcriptional activation domain activity: 37800

ADNNDDEDQDEEEATPAPKPRGGRAPKAAAAATKKSAAAKKAPATRGRKKIIE
transcriptional activation domain activity: 33500

PINALCIILSDDSIKALLQEEFPLKQYRDICNKLDVYLSRRRILGILLYMYPT
transcriptional activation domain activity: 72700

VYYFWVRIFVFSFRSTCFCIFLFYYLYLFFLFIFLYLTSSFSSFHHLSLLLVV
transcriptional activation domain activity: 57800

MYETNLFQWKLSIGFGFVLDYFIGLFLLDFFILDCIFYLLINSAICVFYSLSG
transcriptional activation domain activity: 58100

ENEQDSLALDDLDRAFELVEGMDMDWMMPSHAHHSPATTATIKPRLLYSPLIH
transcriptional activation domain activity: 74200

MRYRVNYMSTQGIHYSPFLPWIINIFKPNIMLICLFSFLPYFILFIMKSMLVL
transcriptional activation domain activity: 74600

VFLKVYLLNPLHMTRFADLLYQGAILNRIFQPYESHLQYLLQWMCDYNLYGCA
transcriptional activation domain activity: 71200

GESKEERRSKKDKKRKREAEGVPAEEEASEVQDKKKKKSKNASAMEVDSATPT
transcriptional activation domain activity: 30900

MNILNLEMWYYLLECLNLRFVLVFFLLSLFFSSRFTGGLVGVECFSFFVWITM
transcriptional activation domain activity: 86000

KPLSKRAAPKKAPAKRKSSAGSKSKETSAEPPKKRPAKAKAKPKKEATPASSP
transcriptional activation domain activity: 41900

RYPFILFPFYSLLSHFLLLLTEIALCLKYCLLLSLCSPILLFLLVFLLLAFCL
transcriptional activation domain activity: 47600

VHANQYYQLDVEIFKSSLDMELLGLLWNKYWINTLSQSPLISVSLFCYGHIFI
transcriptional activation domain activity: 57800

VERCHRNIVPNGCAVFQAGGLVVVLVEVSRKSYLASLVPVIVNAILNEHQIVV
transcriptional activation domain activity: 65300

PMGGDPLLDQAFYGADDFFFPPEGCDNNMLYPQTATSWNVLPPQAMQPAPTYV
transcriptional activation domain activity: 63900

MVRGLFLCFLFSCPWRLLSCCLFLQIFLFSLHLFALKIYVSFFLVHFHACFWA
transcriptional activation domain activity: 60900

NRKTIGKQDPYCAARLGKEAKKTETDRRGGQTPRWDQEMRFTVHDSPDYYQLK
transcriptional activation domain activity: 21000

ASGAGAVKKAPKSPKAVATAKVGAKAAKPKAGAKATKPKAAKPKAAKAAAAGA
transcriptional activation domain activity: 20900

MEFPTPTCFLSFFSFFFHIVFVAYCVAYFSLSRFLFVPSFFFLFLLSYFRLLQ
transcriptional activation domain activity: 67500

NASVTREVPQFDTSANQMLSDIWSWIYYSEEFLAIPPSMVEGYDFSWQGLLGI
transcriptional activation domain activity: 120000

MLRFYVLISFFFFLCNHLLFLICFIYIREFLSHLSGALVLCFGCMVWFLNFPS
transcriptional activation domain activity: 62000

DETNIHFDSMWCNDEYMKLKDIVDISTPFLPNNSQIFSLQESEYPNPSASTRG
transcriptional activation domain activity: 136000

GHVRSHNDERPFACGWAGCERAFARQHDCRRHEQRHARDLEREREREFACAGC
transcriptional activation domain activity: 38100

MFIFFLILLFYYYFYSTILFITYTLFSITQLSIFTLIPFLYYIIHYVTLLICS
transcriptional activation domain activity: 41100

NAPTADTDIATNLGKERNENFGMLNYNYEALLHFNDEHFNELNSIDPALISKY
transcriptional activation domain activity: 107000

EGYDLLPFRLGCAYVVLGWYWISTTWVEAEPVSQGVKPPKDRDYFHRVKLRFD
transcriptional activation domain activity: 42200

MVCFQITFLYSAFFPLFSFSFLLNIFPTISIFPHLLQILAAFFVLFYAFFSTM
transcriptional activation domain activity: 55100

VIEGNTSPAVGIEMCHVMLCSLVKELYQRVAASGMTFVLSVSVECLLSQTLQT
transcriptional activation domain activity: 31800

IGGFLGCLLMGHICLIILVFLCQTLVYREVTRLFTLMDSKPTLNWYFFATANY
transcriptional activation domain activity: 53000

MGGGCLYIILFLLRTTLGVMWVFFCLLFYLFLFWFSKSLIFFSLFLVLIPSYF
transcriptional activation domain activity: 36500

LVVKVLNNTAFSPFFTFFIPVLYWSQNQSWSAPTVFWSTAWFLLVCIFSLLKL
transcriptional activation domain activity: 20900

IDSEAEDASRNGKIPKGKKSKKNHCESETEEVIEKQPASTTQKSSKKKHCMRK
transcriptional activation domain activity: 19600

PVKETETAAVPEVTAEPEAEAAKPAEAPKEEKKEEKKEAKSPKVSRRLSQRVE
transcriptional activation domain activity: 58300

MFCLRSWLPLLFIPTNASPAFIFLFFVCTYFLNRPCVYCSFLLLILFATSCYW
transcriptional activation domain activity: 36100

MSSPKRITVLISGSGTNLQALMDAAGSSRLPNAQITHVISSRSAVKGLERAST
transcriptional activation domain activity: 53800

YGVPIPQNSPATTTNLSGSVDEPQYQRRNIDFVRYDEEYVYHEDMDDELTMLH
transcriptional activation domain activity: 28400

ILIIVFFYVHFLGVLIFLVGGYYHTKVAHGSYWIWPSFVFWAFDRFVRVVRLV
transcriptional activation domain activity: 48500

ESNVAGTAGSKPRKPRAKTQKKMRPSENSQAEKSDRSATRKSREPTGTRRGRK
transcriptional activation domain activity: 24800

IEKNMYPVGTLLTLADHGFNGWLKTTLLPYLNLLHNLDVLDPELLTIFTSFIL
transcriptional activation domain activity: 54700

PLLTLNGLNCFFSLIYLINLLYSLKLFLQYFFFCLPFHIFILLMHSFLYYIFY
transcriptional activation domain activity: 62400
